Experimental data taken from PMC1260013 (BMC Biochemistry, 2005).
Values joined by “and” are separate entries in the source; they are usually repeats but may differ in a detail not shown here. Equal values may be shown once.

Assays:
[1] = target: the molecule itself; test: SEC; Superdex-200 HR 10/30, room temperature, 2.4 mg/ml recombinant ICD-1, calibrated with molecular-mass standards
SEC = target: the molecule itself; test: SEC
[2] = target: the molecule itself; test: SEC; Superose 6 10/300 GL, room temperature, concentrated ICD-2 (~400 ug; 1.06 mg/ml), high salt (1 M NaCl)
[3] = target: the molecule itself; test: SEC; Superose 6 10/300 GL, room temperature, concentrated ICD-2 (~400 ug; 1.06 mg/ml), low salt (100 mM NaCl)

Protein | stoichiometry N [1] | stoichiometry N (SEC) | stoichiometry N [2] | stoichiometry N [3]
Mycobacterium tuberculosis isocitrate dehydrogenase ICD-1 (Rv3339c) (enzyme, also called M.tb ICD-1; M. tb ICD-1) MSNAPKIKVSGPVVELDGDEMTRVIWKLIKDMLILPYLDIRLDYYDLGIEHRDATDDQVTIDAAYAIKKHGVGVKCATITPDEARVEEFNLKKMWLSPNGTIRNILGGTIFREPIVISNVPRLVPGWTKPIVIGRHAFGDQYRATNFKVDQPGTVTLTFTPADGSAPIVHEMVSIPEDGGVVLGMYNFKESIRDFARASFSYGLNAKWPVYLSTKNTILKAYDGMFKDEFERVYEEEFKAQFEAAGLTYEHRLIDDMVAACLKWEGGYVWACKNYDGDVQSDTVAQGYGSLGLMTSVLMTADGKTVEAEAAHGTVTRHYRQYQAGKPTSTNPIASIFAWTRGLQHRGKLDGTPEVIDFAHKLESVVIATVESGKMTKDLAILIGPEQDWLNSEEFLDAIADNLEKELAN | 4 and 2 | – | – | –
Mycobacterium tuberculosis isocitrate dehydrogenase ICD-2 (Rv0066c) (enzyme, also called M.tb ICD-2; M. tb ICD-2) MSAEQPTIIYTLTDEAPLLATYAFLPIVRAFAEPAGIKIEASDISVAARILAEFPDYLTEEQRVPDNLAELGRLTQLPDTNIIKLPNISASVPQLVAAIKELQDKGYAVPDYPADPKTDQEKAIKERYARCLGSAVNPVLRQGNSDRRAPKAVKEYARKHPHSMGEWSMASRTHVAHMRHGDFYAGEKSMTLDRARNVRMELLAKSGKTIVLKPEVPLDDGDVIDSMFMSKKALCDFYEEQMQDAFETGVMFSLHVKATMMKVSHPIVFGHAVRIFYKDAFAKHQELFDDLGVNVNNGLSDLYSKIESLPASQRDEIIEDLHRCHEHRPELAMVDSARGISNFHSPSDVIVDASMPAMIRAGGKMYGADGKLKDTKAVNPESTFSRIYQEIINFCKTNGQFDPTTMGTVPNVGLMAQQAEEYGSHDKTFEIPEDGVANIVDVATGEVLLTENVEAGDIWRMCIVKDAPIRDWVKLAVTRARISGMPVLFWLDPYRPHENELIKKVKTYLKDHDTEGLDIQIMSQVRSMRYTCERLVRGLDTIAATGNILRDYLTDLFPILELGTSAKMLSVVPLMAGGGMYETGAGGSAPKHVKQLVEENHLRWDSLGEFLALGAGFEDIGIKTGNERAKLLGKTLDAAIGKLLDNDKSPSRKTGELDNRGSQFYLAMYWAQELAAQTDDQQLAEHFASLADVLTKNEDVIVRELTEVQGEPVDIGGYYAPDSDMTTAVMRPSKTFNAALEAVQG | – | 3 | 2 | 4
